Holding throughout (experiment): SPR, KD relative to WT C2;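 also: biacore SPR at 37 °C, anti-C2 mAbs captured on anti-human IgG chips with alanine or serine point mutants of C2 as analyte, KD from 1:1 fit compared with wild-type C2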
(In general: SPR reads the build-up and loss of mass on a sensor chip optically.)

One test concerns the target T1, human C2 E324A (human, UniProt P06681 21-752).
T1 sequence: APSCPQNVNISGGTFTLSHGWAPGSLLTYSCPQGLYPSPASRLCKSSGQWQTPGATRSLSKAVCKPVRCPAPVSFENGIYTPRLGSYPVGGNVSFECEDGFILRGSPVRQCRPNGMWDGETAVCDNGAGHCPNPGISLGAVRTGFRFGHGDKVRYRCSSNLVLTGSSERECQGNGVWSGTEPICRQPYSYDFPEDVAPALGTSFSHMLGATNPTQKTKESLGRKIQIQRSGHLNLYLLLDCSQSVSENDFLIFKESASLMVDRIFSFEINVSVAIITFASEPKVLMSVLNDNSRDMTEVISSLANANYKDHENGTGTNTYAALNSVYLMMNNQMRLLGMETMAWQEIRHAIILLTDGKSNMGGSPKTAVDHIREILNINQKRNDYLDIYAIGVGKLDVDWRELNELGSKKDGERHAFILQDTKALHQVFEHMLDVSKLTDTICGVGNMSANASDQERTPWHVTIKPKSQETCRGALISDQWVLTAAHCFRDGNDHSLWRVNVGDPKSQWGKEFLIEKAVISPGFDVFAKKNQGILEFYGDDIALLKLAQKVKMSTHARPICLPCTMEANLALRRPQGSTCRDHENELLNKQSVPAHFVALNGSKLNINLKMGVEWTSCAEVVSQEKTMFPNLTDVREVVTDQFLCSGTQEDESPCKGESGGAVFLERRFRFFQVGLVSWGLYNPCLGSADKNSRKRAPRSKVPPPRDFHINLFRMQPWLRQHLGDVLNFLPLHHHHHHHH

The target in another test is T2, human C2 N327A (human, UniProt P06681 21-752).
T2 sequence: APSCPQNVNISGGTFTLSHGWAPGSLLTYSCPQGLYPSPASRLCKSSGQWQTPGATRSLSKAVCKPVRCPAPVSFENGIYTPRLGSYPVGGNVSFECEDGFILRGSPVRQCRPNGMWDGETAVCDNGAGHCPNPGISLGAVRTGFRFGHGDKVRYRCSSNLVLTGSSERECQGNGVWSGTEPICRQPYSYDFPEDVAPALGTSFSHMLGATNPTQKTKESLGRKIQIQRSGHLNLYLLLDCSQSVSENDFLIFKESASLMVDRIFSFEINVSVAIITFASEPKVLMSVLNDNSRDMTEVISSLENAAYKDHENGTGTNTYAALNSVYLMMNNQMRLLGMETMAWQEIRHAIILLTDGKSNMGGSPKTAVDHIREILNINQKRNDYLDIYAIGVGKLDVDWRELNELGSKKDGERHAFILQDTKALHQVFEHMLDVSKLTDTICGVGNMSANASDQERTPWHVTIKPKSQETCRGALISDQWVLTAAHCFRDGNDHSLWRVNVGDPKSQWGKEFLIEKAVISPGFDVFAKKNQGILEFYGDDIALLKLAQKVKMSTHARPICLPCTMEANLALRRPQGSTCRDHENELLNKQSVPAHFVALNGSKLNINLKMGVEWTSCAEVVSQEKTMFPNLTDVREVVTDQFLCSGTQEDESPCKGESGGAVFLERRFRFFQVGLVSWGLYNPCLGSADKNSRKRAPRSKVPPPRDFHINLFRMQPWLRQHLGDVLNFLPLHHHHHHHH

In another test the target is T3, human C2 T442A (human, UniProt P06681 21-752).
T3 sequence: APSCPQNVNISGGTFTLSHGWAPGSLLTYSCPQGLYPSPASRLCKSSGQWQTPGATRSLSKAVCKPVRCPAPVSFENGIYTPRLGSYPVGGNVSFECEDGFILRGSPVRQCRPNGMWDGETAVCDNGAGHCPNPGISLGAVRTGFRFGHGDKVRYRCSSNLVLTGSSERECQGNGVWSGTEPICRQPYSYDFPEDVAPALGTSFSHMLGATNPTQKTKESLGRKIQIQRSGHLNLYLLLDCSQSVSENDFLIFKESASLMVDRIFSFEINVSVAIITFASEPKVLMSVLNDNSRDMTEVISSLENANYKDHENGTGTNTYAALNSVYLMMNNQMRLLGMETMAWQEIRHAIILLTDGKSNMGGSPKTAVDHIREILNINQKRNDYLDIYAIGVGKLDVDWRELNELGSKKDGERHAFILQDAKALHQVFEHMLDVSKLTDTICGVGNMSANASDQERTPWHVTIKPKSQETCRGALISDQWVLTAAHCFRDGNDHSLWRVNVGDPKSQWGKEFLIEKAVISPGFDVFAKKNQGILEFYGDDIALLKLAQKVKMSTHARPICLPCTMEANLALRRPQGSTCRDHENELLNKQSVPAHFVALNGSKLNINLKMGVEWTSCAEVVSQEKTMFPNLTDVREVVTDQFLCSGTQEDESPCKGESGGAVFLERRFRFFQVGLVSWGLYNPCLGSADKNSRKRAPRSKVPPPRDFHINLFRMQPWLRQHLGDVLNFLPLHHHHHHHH

In another test the target is T4, human C2 R519A (human, UniProt P06681 21-752).
T4 sequence: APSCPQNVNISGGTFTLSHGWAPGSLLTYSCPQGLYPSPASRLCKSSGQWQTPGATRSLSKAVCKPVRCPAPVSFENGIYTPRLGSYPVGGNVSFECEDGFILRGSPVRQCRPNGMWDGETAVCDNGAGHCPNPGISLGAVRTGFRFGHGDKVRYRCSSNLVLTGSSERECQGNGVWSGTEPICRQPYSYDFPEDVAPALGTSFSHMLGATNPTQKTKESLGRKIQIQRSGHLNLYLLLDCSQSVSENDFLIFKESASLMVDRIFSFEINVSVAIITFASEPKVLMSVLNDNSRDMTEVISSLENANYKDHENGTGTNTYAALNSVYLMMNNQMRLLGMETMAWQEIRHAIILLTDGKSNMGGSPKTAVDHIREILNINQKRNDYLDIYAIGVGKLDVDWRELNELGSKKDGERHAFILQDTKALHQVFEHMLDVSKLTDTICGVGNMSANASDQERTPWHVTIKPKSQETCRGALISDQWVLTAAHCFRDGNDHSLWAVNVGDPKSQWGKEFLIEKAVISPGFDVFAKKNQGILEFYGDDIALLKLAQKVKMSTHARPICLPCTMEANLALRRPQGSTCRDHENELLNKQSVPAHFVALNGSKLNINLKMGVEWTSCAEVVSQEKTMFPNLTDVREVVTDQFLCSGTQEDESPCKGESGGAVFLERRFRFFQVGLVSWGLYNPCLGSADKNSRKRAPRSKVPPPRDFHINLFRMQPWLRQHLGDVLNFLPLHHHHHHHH

Experimental for human C2 E324A: (§1) Surface plasmon resonance (SPR, Biacore) was used for all binding affinity analyses. In brief, goat anti-human IgG was directly immobilised onto the carboxymethyl dextran surface of CM5 sensorchips to approximately 12,000 RU using standard NHS/EDC chemistry at pH 5. The immobilised antibody surface was pre-conditioned with ten injections of polyclonal human IgG (Privigen 60 s) prepared at 1 μg/mL. Ligands (anti-C2 mAbs) were captured at the beginning of each cycle as described below. An adjacent spot or flow cell in which only Polyclonal IgG was capture was used as a reference surface. The goat anti-human IgG Fc antibody surface was regenerate in 100 mM H3PO4, injected for 45 seconds at the end of each cycle. Experiments were performed at 37° C. and the flow rate of each experiment was kept constant at 30 μL/min.
(§2) Sensogram data was double-referenced against a reference anti-IgG surface (i.e. minus anti-C2 mAb) and blank buffer injections obtained within each experiment. The binding data was fit to 1:1 (kinetic or steady-state) model using local Rmax and null refraction index (RI=0) when appropriate. Buffers and solutions were filtered (0.22 μm) prior to use.
Experimental for human C2 N327A: as §1, §2
Experimental for human C2 R519A: as §1, §2
Experimental for human C2 T442A: as §1, §2

B1: RF16-242 (antibody, human IgG4 S228P, lambda, V domains shown)
VH: EVQLLQSGAEVKKPGESLKISCKGSGYSFTSYWIGWVRQMPGKGLEWMGIIYPGDSDTRYSPSFQGQVTISADKSISTAYLQWSSLKASDTAMYYCARRGHYGDYFDYWGQGTLVTVSS
VL: SYELTQPPSVSVSPGQTARITCSGDALPKKYAYWYHQKSGQAPVLVIYEDRRRPSEIPERFSGSSSGTMATLTITGAQVEDEGVYFCYSRDRAGNQRVFGGGTQLTVLG
notes: pH-dependent anti-C2 antibody from a phage display library
In the case of B1, the Fold diff with human C2 E324A amounted to 2 fold; with human C2 N327A, 5 fold; with human C2 T442A it was 3 fold; in the test with human C2 R519A it was 1 fold.

These data come from patent publication US20220332804A1 (CSL INNOVATION, published 2022).
